± gives the uncertainty stated by the source.

This series can be described thus: amyloid nucleation score (Sup35N fusion, yeast selection) (log enrichment); library NNK3; higher = more nucleation; inactive = no reads after selection. In short, it runs like this:
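The nucleation score equals the log enrichment of output over input reads from DiMSum, centred on the mode score of non-aggregating sequences. It was computed only for sequences with 100 or more input reads. The reads came from Illumina sequencing of plasmid inserts from psi-negative yeast expressing Sup35N fused to peptides of 20 random codons, induced with 100 μM copper sulfate for 24 hours and grown 7 days at 30°C without adenine and uracil.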
On to LHAFLEVSVRYTKSRST, for which the amyloid nucleation score entry is “inactive”.
LHALFVLSMGQA: the amyloid nucleation score result is “inactive”.
The entry for LHEEGCATVLKVGCALTSEC is “inactive”; for LHEENA it is “inactive”; for LHIHRFWQQPHTNAGRIPHP it is “inactive”.
Take LHKLVLMINDRPYLKPS: the amyloid nucleation score result was “inactive”.
On to LHVDS, for which the amyloid nucleation score entry was “inactive”.
LHVSWGGLSGDTLFTRKVGV: the amyloid nucleation score entry is “inactive”.
For the substance LHVYTSILWWTYKVDVWLLS, the amyloid nucleation score entry is “inactive”.
Turning to LHYKCNDVHQNGMLELCYLN, the amyloid nucleation score result is “inactive”.
Regarding LIACNVPVVEVRTSIGVKDI, the amyloid nucleation score result was “inactive”.
Consider LIADHIVRSSSLMSWFSPSR, for which the amyloid nucleation score entry was “inactive”.
The same measure for LIEDVYLWLCYHRVGYLSAS: “inactive”; for LIFFRVVSQLFKFSLRDLPL: “inactive”; for LIGCVLGSLFLRDIFIYCLM: 0.409 ± 0.67.
The entry for LIHFV is “inactive”.
Substance LIILWRQ came in with an amyloid nucleation score of 1.27 ± 0.079.
LINGTGDRMYTDLLL: the amyloid nucleation score result is “inactive”.
Consider LIPQRDNMGGGFRTFSLCYV, for which the amyloid nucleation score result was “inactive”.
LIRMFISVMSYCMTVGLGMG: the amyloid nucleation score result was “inactive”.
As for LIRTIEYLGRRISSQGCLHT, the amyloid nucleation score result is “inactive”.
The entry for LISAYVGWDICLASML is “inactive”.
Consider LIVFWDGFMCT, for which the amyloid nucleation score entry was “inactive”.
In turn, LIVNSRSVFNITHFLNINYQ yielded an amyloid nucleation score of 2.1 ± 0.077.
In the case of LIYLYWGLFVTSNSLETCR, the amyloid nucleation score was determined as 1.4 ± 0.086.
Turning to LIYVFIIFVMIFWVCCTMRS, the amyloid nucleation score amounted to 0.166 ± 0.42.
For LKADRVVSFFWLCSFIFTSI, the amyloid nucleation score result is “inactive”.
As for LKIFKCI, the amyloid nucleation score result was “inactive”.
LKKVCDECRFSESPLVPEVA displayed an amyloid nucleation score of 1.06 ± 0.13.
As to LKLTMSFMSQDLIIHVIDCS, the amyloid nucleation score entry is “inactive”.
LKMMSLLTSEATSMHHGVNW: the amyloid nucleation score result is “inactive”.
For the substance LKNPARYYYVVQIFMVLSTA, the amyloid nucleation score result was “inactive”.
As for LKRCRLQMAGYELSWDQGTM, the amyloid nucleation score entry was “inactive”.
The same measure for LKRLSCFTGSPR: “inactive”; for LKRNVNYVNLNVFRLFLK: “inactive”.
Take LKRYDVQSSTGVNLTYGTYT: the amyloid nucleation score entry was “inactive”.
LKSSPFNYSVGIS: the amyloid nucleation score entry was “inactive”.
For LKVVLYGVHQSCEYMRSRLS, the amyloid nucleation score result was “inactive”.
As to LKYSSDQYLCRTFLGISGFG, the amyloid nucleation score entry is “inactive”.
Regarding LLAWRHEMLMFVPDNLSYGG, the amyloid nucleation score entry was “inactive”.
In the case of LLCLLQYLWPRRDSYYACLR, the amyloid nucleation score is 0.782 ± 0.18.
With LLCND, the amyloid nucleation score result is “inactive”.
As for LLCRE, the amyloid nucleation score entry was “inactive”.
As to LLDSVDMLGFVMWVFGEVTN, the amyloid nucleation score result is “inactive”.
For the substance LLESTSF, the amyloid nucleation score entry was “inactive”.
As to LLFENIQK, the amyloid nucleation score entry is “inactive”.
For LLGRKRA, the amyloid nucleation score result was “inactive”.
The same measure for LLHHFFAVFDSARETKWDWD: 0.247 ± 0.34.
The same measure for LLKLNS: “inactive”; for LLLFRGAYRLQISAFCLCTE: “inactive”; for LLLNMM: “inactive”.
For LLLRCANHFCYMDATDIYFR, the amyloid nucleation score result was “inactive”.
The same measure for LLLSEREGIYVVWVWCRWPV: “inactive”.
LLNPCKRSCVNLRMHTQPSS: the amyloid nucleation score result was “inactive”.

The record behind these values is the supplement of paper PMC12042874.
